Tests used:
CD30 [1] = target: T1, CD30 (UniProt P28908 19-595, limits assumed); assay: flow cytometry on Karpas-299 cells
T1 construct: whole, on cells; also called CD30 on CD19-/CD30+ KARPAS-299 cells
T1 sequence (looked up): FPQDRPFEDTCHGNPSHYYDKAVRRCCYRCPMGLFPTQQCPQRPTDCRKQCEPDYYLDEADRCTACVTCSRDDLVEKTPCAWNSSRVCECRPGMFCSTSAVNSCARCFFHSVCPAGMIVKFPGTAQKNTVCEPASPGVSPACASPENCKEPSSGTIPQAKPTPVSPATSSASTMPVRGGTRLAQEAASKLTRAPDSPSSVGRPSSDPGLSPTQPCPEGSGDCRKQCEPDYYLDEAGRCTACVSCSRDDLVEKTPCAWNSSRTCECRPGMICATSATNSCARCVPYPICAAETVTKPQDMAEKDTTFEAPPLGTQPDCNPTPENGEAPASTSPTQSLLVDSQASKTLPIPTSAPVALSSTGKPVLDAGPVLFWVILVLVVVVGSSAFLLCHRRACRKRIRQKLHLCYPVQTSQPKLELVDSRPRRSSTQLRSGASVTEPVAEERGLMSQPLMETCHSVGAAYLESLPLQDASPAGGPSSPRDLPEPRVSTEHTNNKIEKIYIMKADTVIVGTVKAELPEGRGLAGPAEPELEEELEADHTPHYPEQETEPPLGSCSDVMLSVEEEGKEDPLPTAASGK
Description: (§1) Single-positive CD19+/CD30− Raji and CD19-/CD30+ KARPAS-299 cells as well as double-positive CD19+/CD30+ MEC-1 were stained with serial dilutions of the trispecific antibody molecules and cell surface bound antibodies were detected by mAb anti-His followed by FITC-conjugated goat anti-mouse IgG. Mean fluorescence intensities determined by flow cytometry were used to calculate KD values by non-linear regression. KD values for trispecific antibody molecules were determined in two independent experiments. […]
(§2) After repeated washing with FACS buffer, cell-bound antibodies were detected with 10 μg/mL anti-His mAb 13/45/31-2 (Dianova, Hamburg, Germany, cat.: DIA910-1MG) followed by 15 μg/mL FITC-conjugated goat anti-mouse antibody (Dianova, cat.: 115-095-062). […] The fluorescence of 2-5×10³ living cells was measured using a Beckman-Coulter FC500 MPL flow cytometer using the MXP software (Beckman-Coulter, Krefeld, Germany) or a Millipore Guava EasyCyte flow cytometer (Merck Millipore, Schwalbach, Germany). Mean fluorescence intensities of the cell samples were calculated using CXP software (Beckman-Coulter) or Incyte software (Merck Millipore, Schwalbach, Germany). […]

CD19 [2] = target: T2, CD19 (UniProt P15391 20-556, limits assumed); assay: flow cytometry on Raji cells
T2 construct: whole, on cells; Raji is a human cell line; also called CD19 on CD19+/CD30- Raji cells
T2 sequence (looked up): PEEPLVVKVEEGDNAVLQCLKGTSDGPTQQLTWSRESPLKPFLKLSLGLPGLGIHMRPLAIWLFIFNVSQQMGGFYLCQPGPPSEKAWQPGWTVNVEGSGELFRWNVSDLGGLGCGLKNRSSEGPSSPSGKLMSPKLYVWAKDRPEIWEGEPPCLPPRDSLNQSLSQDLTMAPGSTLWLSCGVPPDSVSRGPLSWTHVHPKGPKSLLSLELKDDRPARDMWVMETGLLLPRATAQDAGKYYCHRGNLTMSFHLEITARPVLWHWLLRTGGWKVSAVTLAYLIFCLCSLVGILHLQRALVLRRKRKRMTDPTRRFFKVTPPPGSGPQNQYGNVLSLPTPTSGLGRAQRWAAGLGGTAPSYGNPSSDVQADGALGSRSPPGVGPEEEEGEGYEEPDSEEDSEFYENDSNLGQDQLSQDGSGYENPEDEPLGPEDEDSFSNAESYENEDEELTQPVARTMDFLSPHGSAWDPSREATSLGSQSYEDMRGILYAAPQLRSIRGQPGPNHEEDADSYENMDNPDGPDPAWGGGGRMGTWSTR
Description: as §1, §2

CD16A (FcγRIIIA) = target: T3, CD16A (FcγRIIIA) (human, UniProt P08637 17-254); assay: flow cytometry on primary NK cells
T3 construct: whole, on cells; also called CD16A on primary NK cells
Description: Aliquots of the indicated cell lines were incubated with […] of serial dilutions of His-tagged antibodies in FACS buffer (PBS, Invitrogen, cat.: 14190-169) containing 2% heat-inactivated FCS (Invitrogen, cat.: 10270-106), 0.1% sodium azide (Roth, Karlsruhe, Germany, cat.: A1430.0100) for 45 min on ice. Staining of NK-cells was performed in FACS buffer supplemented with 1 mg/mL polyclonal human antibody (Gammanorm, Octapharma, Langenfeld, Germany, cat.: PZN-2451445) to block binding of antibodies to Fc[…] receptors.
After repeated washing with FACS buffer, cell-bound antibodies were detected with 10 μg/mL anti-His mAb 13/45/31-2 (Dianova, Hamburg, Germany, cat.: DIA910-1MG) followed by 15 μg/mL FITC-conjugated goat anti-mouse antibody (Dianova, cat.: 115-095-062). The cells were then washed again and resuspended in 0.2 mL of FACS buffer containing 2 μg/mL propidium iodide (PI) (Sigma, cat.: P4170) in order to exclude dead cells. The fluorescence of 2-5×10³ living cells was measured using a Beckman-Coulter FC500 MPL flow cytometer using the MXP software (Beckman-Coulter, Krefeld, Germany) or a Millipore Guava EasyCyte flow cytometer (Merck Millipore, Schwalbach, Germany). Mean fluorescence intensities of the cell samples were calculated using CXP software (Beckman-Coulter) or Incyte software (Merck Millipore, Schwalbach, Germany). After subtracting the fluorescence intensity values of the cells stained with the secondary and tertiary reagents alone, the values were used for analysis using the GraphPad Prism (GraphPad Prism version 6.00 for Windows, GraphPad Software, La Jolla Calif. USA). For the calculation of KD, the equation for one-site-binding (hyperbolic) was used.

CD19 [3] = target: T2, CD19; assay: flow cytometry on Raji cells, anti-His detection
Description: as §1, §2

CD30 [4] = target: T1, CD30; assay: flow cytometry on KARPAS-299 cells, anti-His detection
Description: as §1, §2

Measured: binding result

T3 sequence (P08637 17-254): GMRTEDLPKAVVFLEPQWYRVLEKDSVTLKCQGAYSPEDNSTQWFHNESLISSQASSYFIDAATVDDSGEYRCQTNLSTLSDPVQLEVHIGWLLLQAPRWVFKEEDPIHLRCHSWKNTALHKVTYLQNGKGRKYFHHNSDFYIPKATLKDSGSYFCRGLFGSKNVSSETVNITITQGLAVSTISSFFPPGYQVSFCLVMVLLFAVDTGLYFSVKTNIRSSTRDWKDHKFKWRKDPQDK

B1: aTriFlex_104 (other)
chain 1: QVQLQQSGAELARPGASVKMSCKASGYTFTTYTIHWVRQRPGHDLEWIGYINPSSGYSDYNQNFKGKTTLTADKSSNTAYMQLNSLTSEDSAVYYCARRADYGNYEYTWFAYWGQGTTVTVSSGGSGGSGGSGGSGGSGGSDIVMTQSPKFMSTSVGDRVTVTCKASQNVGTNVAWFQQKPGQSPKVLIYSASYRYSGVPDRFTGSGSGTDFTLTISNVQSEDLAEYFCQQYHTYPLTFGGGTKLEINGGSGGSGGSSYVLTQPSSVSVAPGQTATISCGGHNIGSKNVHWYQQRPGQSPVLVIYQDNKRPSGIPERFSGSNSGNTATLTISGTQAMDEADYYCQVWDNYSVLFGGGTKLTVLGGSGGSGGSSYVLTQPSSVSVAPGQTATISCGGHNIGSKNVHWYQQRPGQSPVLVIYQDNKRPSGIPERFSGSNSGNTATLTISGTQAMDEADYYCQVWDNYSVLFGGGTKLTVLGGSGGSGGSSYVLTQPPSVSVAPGQTARITCGGNNIGSKTVHWYQQKPGQAPVLVVYDDSDRPSGIPERFSGSNSGNTATLTISRVEAGDEADYYCQVGTDWSDHLQVFGGGTKLTVLGGSGGSGGSGGSGGSGGSGGSEVQLVQSGAEVKKPGESLKISCKGSGYSFTSNWIGWVRQMPGKGLEWMGMIWPGDSDTMYSPSFQGQVTISADESINTAYLQWSSLKASDTAMYYCARRETTTVGRYYYAMDYWGQGTLVTVSSAAAGSDYKDDDDK
chain 2: QVQLVQSGAEVKKPGESLKVSCKASGYTFTSYYMHWVRQAPGQGLEWMGIINPSGGSTSYAQKFQGRVTMTRDTSTSTVYMELSSLRSEDTAVYYCARGSAYYYDFADYWGQGTLVTVSSGGSGGSGGSQVQLVQSGAEVKKPGESLKVSCKASGYTFTSYYMHWVRQAPGQGLEWMGIINPSGGSTSYAQKFQGRVTMTRDTSTSTVYMELSSLRSEDTAVYYCARGSAYYYDFADYWGQGTLVTVSSAAAGSHHHHHH
notes: Tetravalent, trispecific (CD30, CD19, CD16A) Fv antibody without constant domains; heterodimer of two polypeptides; also called antibody molecule d); construct d)
binds: CD30 [1] | CD19 [2] | CD16A (FcγRIIIA)

B2: aTriFlex_101 (other)
chain 1: QVQLQQSGAELARPGASVKMSCKASGYTFTTYTIHWVRQRPGHDLEWIGYINPSSGYSDYNQNFKGKTTLTADKSSNTAYMQLNSLTSEDSAVYYCARRADYGNYEYTWFAYWGQGTTVTVSSGGSGGSGGSGGSGGSGGSDIVMTQSPKFMSTSVGDRVTVTCKASQNVGTNVAWFQQKPGQSPKVLIYSASYRYSGVPDRFTGSGSGTDFTLTISNVQSEDLAEYFCQQYHTYPLTFGGGTKLEINGGSGGSGGSQVQLVQSGAEVKKPGESLKVSCKASGYTFTSYYMHWVRQAPGQGLEWMGIINPSGGSTSYAQKFQGRVTMTRDTSTSTVYMELSSLRSEDTAVYYCARGSAYYYDFADYWGQGTLVTVSSGGSGGSGGSQVQLVQSGAEVKKPGESLKVSCKASGYTFTSYYMHWVRQAPGQGLEWMGIINPSGGSTSYAQKFQGRVTMTRDTSTSTVYMELSSLRSEDTAVYYCARGSAYYYDFADYWGQGTLVTVSSGGSGGSGGSSYVLTQPPSVSVAPGQTARITCGGNNIGSKTVHWYQQKPGQAPVLVVYDDSDRPSGIPERFSGSNSGNTATLTISRVEAGDEADYYCQVGTDWSDHLQVFGGGTKLTVLGGSGGSGGSGGSGGSGGSGGSEVQLVQSGAEVKKPGESLKISCKGSGYSFTSNWIGWVRQMPGKGLEWMGMIWPGDSDTMYSPSFQGQVTISADESINTAYLQWSSLKASDTAMYYCARRETTTVGRYYYAMDYWGQGTLVTVSSAAAGSHHHHHH
chain 2: SYVLTQPSSVSVAPGQTATISCGGHNIGSKNVHWYQQRPGQSPVLVIYQDNKRPSGIPERFSGSNSGNTATLTISGTQAMDEADYYCQVWDNYSVLFGGGTKLTVLGGSGGSGGSSYVLTQPSSVSVAPGQTATISCGGHNIGSKNVHWYQQRPGQSPVLVIYQDNKRPSGIPERFSGSNSGNTATLTISGTQAMDEADYYCQVWDNYSVLFGGGTKLTVLAAAGSDYKDDDDK
notes: Tetravalent, trispecific (CD30, CD19, CD16A) Fv antibody without constant domains; heterodimer of two non-covalently associated polypeptides; also called antibody molecule a); construct a)
binds: CD19 [3] | CD30 [4] | CD16A (FcγRIIIA)

B3: aTriFlex_102 (other)
chain 1: SYVLTQPPSVSVAPGQTARITCGGNNIGSKTVHWYQQKPGQAPVLVVYDDSDRPSGIPERFSGSNSGNTATLTISRVEAGDEADYYCQVGTDWSDHLQVFGGGTKLTVLGGSGGSGGSGGSGGSGGSGGSEVQLVQSGAEVKKPGESLKISCKGSGYSFTSNWIGWVRQMPGKGLEWMGMIWPGDSDTMYSPSFQGQVTISADESINTAYLQWSSLKASDTAMYYCARRETTTVGRYYYAMDYWGQGTLVTVSSGGSGGSGGSQVQLVQSGAEVKKPGESLKVSCKASGYTFTSYYMHWVRQAPGQGLEWMGIINPSGGSTSYAQKFQGRVTMTRDTSTSTVYMELSSLRSEDTAVYYCARGSAYYYDFADYWGQGTLVTVSSGGSGGSGGSQVQLVQSGAEVKKPGESLKVSCKASGYTFTSYYMHWVRQAPGQGLEWMGIINPSGGSTSYAQKFQGRVTMTRDTSTSTVYMELSSLRSEDTAVYYCARGSAYYYDFADYWGQGTLVTVSSGGSGGSGGSQVQLQQSGAELARPGASVKMSCKASGYTFTTYTIHWVRQRPGHDLEWIGYINPSSGYSDYNQNFKGKTTLTADKSSNTAYMQLNSLTSEDSAVYYCARRADYGNYEYTWFAYWGQGTTVTVSSGGSGGSGGSGGSGGSGGSDIVMTQSPKFMSTSVGDRVTVTCKASQNVGTNVAWFQQKPGQSPKVLIYSASYRYSGVPDRFTGSGSGTDFTLTISNVQSEDLAEYFCQQYHTYPLTFGGGTKLEINAAAGSHHHHHH
chain 2: SYVLTQPSSVSVAPGQTATISCGGHNIGSKNVHWYQQRPGQSPVLVIYQDNKRPSGIPERFSGSNSGNTATLTISGTQAMDEADYYCQVWDNYSVLFGGGTKLTVLGGSGGSGGSSYVLTQPSSVSVAPGQTATISCGGHNIGSKNVHWYQQRPGQSPVLVIYQDNKRPSGIPERFSGSNSGNTATLTISGTQAMDEADYYCQVWDNYSVLFGGGTKLTVLAAAGSDYKDDDDK
notes: Tetravalent, trispecific (CD30, CD19, CD16A) Fv antibody without constant domains; heterodimer of two polypeptides; also called antibody molecule b); construct b)
binds: CD19 [3] | CD30 [4] | CD16A (FcγRIIIA)

— patent US20190040155A1 (AFFIMED, published 2019)
